Source: patent publication US20250121082A1 (SHANDONG BOAN BIOTECHNOLOGY, published 2025)

Experiments:
Human CD228 protein [1] = target: T1, Human CD228 protein (human, UniProt P08582 20-708, limits assumed); assay: Octet competition on His-chip CD228; competitor: hl49
T1 construct: Recombinant protein made in CHO cells, purified over a Ni column; The printed entry begins with the leader (MRGPSG...) and ends with ten His; also called hCD228; CD228-His protein
T1 sequence: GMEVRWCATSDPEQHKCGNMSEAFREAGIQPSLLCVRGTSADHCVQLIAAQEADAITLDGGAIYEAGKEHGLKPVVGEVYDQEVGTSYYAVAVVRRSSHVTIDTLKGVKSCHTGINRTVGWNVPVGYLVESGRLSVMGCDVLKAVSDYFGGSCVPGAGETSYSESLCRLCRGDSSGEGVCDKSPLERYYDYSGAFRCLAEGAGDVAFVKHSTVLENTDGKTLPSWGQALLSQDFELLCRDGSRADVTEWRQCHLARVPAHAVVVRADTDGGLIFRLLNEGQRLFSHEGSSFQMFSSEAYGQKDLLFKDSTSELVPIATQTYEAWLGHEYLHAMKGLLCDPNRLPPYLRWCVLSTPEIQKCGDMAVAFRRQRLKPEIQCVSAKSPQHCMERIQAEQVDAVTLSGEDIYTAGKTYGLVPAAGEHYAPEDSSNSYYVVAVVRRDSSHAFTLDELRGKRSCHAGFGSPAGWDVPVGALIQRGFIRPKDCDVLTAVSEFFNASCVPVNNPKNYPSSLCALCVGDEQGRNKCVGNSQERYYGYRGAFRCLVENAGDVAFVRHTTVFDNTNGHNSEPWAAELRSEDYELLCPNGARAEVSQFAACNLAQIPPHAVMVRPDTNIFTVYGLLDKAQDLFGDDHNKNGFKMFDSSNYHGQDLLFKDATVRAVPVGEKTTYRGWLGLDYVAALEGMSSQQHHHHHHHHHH
Method: (§1) CD228 proteins were immobilized on His chips at 10 μg/mL with a threshold of 0.5 nm. The first CD228 antibody (30 μg/mL) was immobilized, and the competitive binding of the second CD228 antibody (30 μg/mL) was analyzed. The Octet 8K system was used to analyze the response of antibody 2 and to determine whether antibody 1 and antibody 2 were in competition.

Human CD228 protein [2] = target: T1, Human CD228 protein; assay: Octet competition on His-chip CD228; competitor: CA149
Method: as §1
(§2) The final competition analysis was conducted using the following calculation method: 1—response value/blank value.

Human CD228 protein [3] = target: T1, Human CD228 protein; assay: Octet competition on His-chip CD228; competitor: CA67
Method: as §1, §2

Human CD228 protein [4] = target: T1, Human CD228 protein; assay: Octet, CD228 on His chip; PBST buffer in place of the first antibody
Method: as §1

Human CD228 protein [5] = target: T1, Human CD228 protein; assay: Octet competition on His-chip CD228; competitor: CA13
Method: as §1

Human CD228 protein [6] = target: T1, Human CD228 protein; assay: Octet competition on His-chip CD228; competitor: CA518
Method: as §1

Human CD228 protein [7] = target: T1, Human CD228 protein; assay: Octet competition on His-chip CD228; competitor: CA13; remark: listed apart in the source
Method: as §1, §2

Human CD228 protein [8] = target: T1, Human CD228 protein; assay: Octet competition on His-chip CD228; competitor: BA352
Method: as §1

Human CD228 protein [9] = target: T1, Human CD228 protein; assay: as above; remark: listed apart in the source
Method: as §1, §2

Human CD228 protein [10] = target: T1, Human CD228 protein; assay: Octet competition on His-chip CD228; competitor: CA67; remark: listed apart in the source
Method: as §1

Mouse CD228 protein = target: T2, Mouse CD228 protein (mouse, UniProt Q9R0R1 20-708, limits assumed); assay: SPR, BIAcore 8K; antibody on ProA chip, CD228 protein as analyte
T2 construct: Recombinant His-tagged protein from CHO cells
T2 chain: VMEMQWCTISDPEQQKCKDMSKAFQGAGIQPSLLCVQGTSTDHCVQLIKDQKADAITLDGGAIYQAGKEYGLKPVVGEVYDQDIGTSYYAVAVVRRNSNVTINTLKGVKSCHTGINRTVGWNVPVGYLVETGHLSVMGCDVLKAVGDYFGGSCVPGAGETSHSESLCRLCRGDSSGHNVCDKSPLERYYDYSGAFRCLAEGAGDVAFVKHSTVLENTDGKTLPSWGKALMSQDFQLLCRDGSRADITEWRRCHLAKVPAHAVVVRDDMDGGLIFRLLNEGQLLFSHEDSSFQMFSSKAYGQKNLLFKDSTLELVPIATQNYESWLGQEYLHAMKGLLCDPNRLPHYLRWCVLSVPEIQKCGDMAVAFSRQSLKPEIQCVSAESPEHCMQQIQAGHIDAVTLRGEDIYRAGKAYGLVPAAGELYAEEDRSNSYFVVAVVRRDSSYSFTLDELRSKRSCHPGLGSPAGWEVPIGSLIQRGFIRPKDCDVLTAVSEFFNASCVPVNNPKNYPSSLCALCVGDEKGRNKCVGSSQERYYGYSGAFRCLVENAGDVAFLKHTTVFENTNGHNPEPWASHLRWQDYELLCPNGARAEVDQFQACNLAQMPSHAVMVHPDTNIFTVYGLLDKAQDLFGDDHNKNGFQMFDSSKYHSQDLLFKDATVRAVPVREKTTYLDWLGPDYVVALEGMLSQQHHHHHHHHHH
Method: The binding kinetics of the antibodies to the CD228 proteins was measured using the BIAcore 8K system based on surface plasmon resonance (SRP). CD228 antibodies were immobilized on ProA chips at a concentration of 2 μg/mL, and the binding activity of the CD228 antibodies to human, monkey, and mouse CD228 proteins was analyzed. Human, monkey and mouse CD228 proteins were serially 2-fold diluted from 50 nM to 5 concentrations with an HBS-EP+ buffer. The binding kinetics of the CD228 proteins were analyzed by Biacore, and the affinity activity KD values were calculated by fitting.

Human CD228 protein [11] = target: T1, Human CD228 protein; assay: Octet competition on His-chip CD228; competitor: CA518; remark: listed apart in the source
Method: as §1, §2

B1: reference antibody hL49 (antibody, human IgG1, kappa, V domains shown)
VH: QVQLQESGPGLVKPSETLSLTCTVSGDSITSGYWNWIRQPPGKGLEYIGYISDSGITYYNPSLKSRVTISRDTSKNQYSLKLSSVTAADTAVYYCARRTLATYYAMDYWGQGTLVTVSS
VL: DFVMTQSPLSLPVTLGQPASISCRASQSLVHSDGNTYLHWYQQRPGQSPRLLIYRVSNRFSGVPDRFSGSGSGTDFTLKISRVEAEDVGVYYCSQSTHVPPTFGQGTKLEIKR
notes: also called H149; hL49 analogy
Human CD228 protein [1]
  Octet response value: 0.0169
Human CD228 protein [2]
  competition (1-response value/blank value): -6%
Human CD228 protein [3]
  competition (1-response value/blank value): -7%
Human CD228 protein [4]
  Octet response value (blank value, PBST buffer): 0.347
Human CD228 protein [5]
  Octet response value: 0.418
Human CD228 protein [6]
  Octet response value: 0.456
Human CD228 protein [7]
  competition (1-response value/blank value): -6%
Human CD228 protein [8]
  Octet response value: 0.177
Human CD228 protein [9]
  competition (1-response value/blank value): 55%
Human CD228 protein [10]
  Octet response value: 0.456
Mouse CD228 protein
  binding result: no binding
Human CD228 protein [11]
  competition (1-response value/blank value): -3%
